Test results as given in patent US20050118729A1 (published 2005).

Target: T1, α4β1 integrin expressed on Jurkat cells (human, UniProt P13612 34-1032; P05556 21-798)
T1 construct: whole, on cells; Cells labeled with a fluorescent dye (Cyto 82); also called receptor recognizing the CS1 peptide
Assay: cell adhesion of labeled Jurkat cells on microarray
Experimental: Jurkat T-cells, a human leukemia line, were grown under the appropriate growing conditions. Shortly before the adherence assay, cells were washed with 5 mM EDTA in Tris-buffered saline (TBS, 10 mM Tris-HCl, pH 7.4, 150 mM NaCl) and then incubated with Cyto 82 (2 μM final concentration) for 30 min under continuous agitation. Labeled cells were washed twice with the same buffer and applied directly on the fabricated microarray slides.
The model of interaction chosen for this purpose was α4β1-CS1-interaction model. α4β1 is an integrin expressed by several types of adherent cells and can mediate cell matrix contact trough the known ligand fibronectin. […] The slides were washed extensively and the interaction was scanned by the microarray scanner (FIG. 10).

T1 sequence (P13612 34-1032, chain 1 of 2): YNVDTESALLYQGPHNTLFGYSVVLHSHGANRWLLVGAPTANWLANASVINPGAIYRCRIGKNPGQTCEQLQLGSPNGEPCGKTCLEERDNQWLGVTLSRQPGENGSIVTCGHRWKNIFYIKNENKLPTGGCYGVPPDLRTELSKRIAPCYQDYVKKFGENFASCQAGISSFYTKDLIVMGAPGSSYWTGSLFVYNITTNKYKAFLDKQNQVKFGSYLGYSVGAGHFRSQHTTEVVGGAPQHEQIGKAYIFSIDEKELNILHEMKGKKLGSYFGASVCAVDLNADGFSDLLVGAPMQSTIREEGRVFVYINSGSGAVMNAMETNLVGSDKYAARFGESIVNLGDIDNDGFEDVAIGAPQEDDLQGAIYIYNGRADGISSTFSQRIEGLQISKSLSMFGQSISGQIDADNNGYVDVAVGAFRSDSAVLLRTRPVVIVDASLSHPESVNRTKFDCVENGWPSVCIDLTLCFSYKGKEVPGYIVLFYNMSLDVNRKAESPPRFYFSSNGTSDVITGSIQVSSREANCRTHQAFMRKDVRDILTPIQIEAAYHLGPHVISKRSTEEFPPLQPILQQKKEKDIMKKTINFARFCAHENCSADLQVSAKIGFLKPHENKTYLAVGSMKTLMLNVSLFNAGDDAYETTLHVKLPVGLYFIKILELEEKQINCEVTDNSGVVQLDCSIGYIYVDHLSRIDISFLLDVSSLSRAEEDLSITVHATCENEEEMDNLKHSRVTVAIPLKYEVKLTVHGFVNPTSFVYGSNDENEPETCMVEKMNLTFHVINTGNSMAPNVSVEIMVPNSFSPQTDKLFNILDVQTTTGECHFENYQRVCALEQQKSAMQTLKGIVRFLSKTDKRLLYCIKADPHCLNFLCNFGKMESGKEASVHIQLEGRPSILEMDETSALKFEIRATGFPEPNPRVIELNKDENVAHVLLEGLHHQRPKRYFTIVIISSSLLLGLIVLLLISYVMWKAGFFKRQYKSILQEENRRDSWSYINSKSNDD
T1 sequence (P05556 21-798, chain 2 of 2): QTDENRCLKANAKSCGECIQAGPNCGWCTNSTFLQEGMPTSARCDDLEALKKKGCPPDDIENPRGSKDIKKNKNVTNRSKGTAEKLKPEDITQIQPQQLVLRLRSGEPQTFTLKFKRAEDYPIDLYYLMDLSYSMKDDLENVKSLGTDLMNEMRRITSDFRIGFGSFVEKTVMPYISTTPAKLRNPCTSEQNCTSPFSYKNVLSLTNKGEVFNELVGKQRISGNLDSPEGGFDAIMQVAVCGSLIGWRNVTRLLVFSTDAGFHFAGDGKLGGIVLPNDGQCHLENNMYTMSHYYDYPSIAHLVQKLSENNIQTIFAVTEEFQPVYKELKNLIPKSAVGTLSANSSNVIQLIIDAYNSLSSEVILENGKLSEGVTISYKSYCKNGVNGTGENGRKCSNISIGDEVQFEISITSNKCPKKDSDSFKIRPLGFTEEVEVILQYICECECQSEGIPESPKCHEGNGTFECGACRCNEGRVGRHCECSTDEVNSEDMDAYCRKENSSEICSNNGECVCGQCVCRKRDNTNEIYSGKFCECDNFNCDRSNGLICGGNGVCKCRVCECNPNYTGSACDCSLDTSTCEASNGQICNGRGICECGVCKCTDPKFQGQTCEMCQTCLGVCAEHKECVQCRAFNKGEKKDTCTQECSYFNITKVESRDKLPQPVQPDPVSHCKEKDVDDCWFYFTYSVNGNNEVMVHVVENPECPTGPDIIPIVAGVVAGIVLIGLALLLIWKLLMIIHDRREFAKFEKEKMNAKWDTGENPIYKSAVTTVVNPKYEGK

B1: recombinant protein comprising the cellulose binding region of SEQ ID NO 4 (cellulose binding recombinant protein of Example 1) (other)
chain: NATPTKGATPTNTATPTKSATATPTRPSVPTNTPTNTPANTPVSGNLKVEFYNSNPSDTTNSINPQFKVTNTGSSAIDLSKLTLRYYYTVDGQKDQTFWCDHAAIIGSNGSYNGITSNVKGTFVKMSSSTNNADTYLEISFTGGTLEPGAHVQIQGRFAKNDWSNYTQSNDYSFKSASQFVEWDQVTAYLNGVLVWGKEPGGSVVPSTQPVTTPPATTKPPATTKPPATTIPPSDDPNA
Question: Does B1 bind?
Answer: no binding (tested: highest array concentration)
